The text below walks through data of US20120042399A1.

The target in assay [1] is PASD1(2) (…) presented by the HHD chimeric monochain MHC class I molecule (human; mouse).
Assay [2] addresses PASD1(1) (…) presented by the HHD chimeric monochain MHC class I molecule (human; mouse).
Assay [3] has the same target. The source holds these as a separate data set.
For assay [4] the target is unchanged. The source holds these as a separate data set.

Substance “splenocytes from HHD mice vaccinated with p.DOM-PASD1(2) (cells without a defined receptor)” came in with an IFNγ-secreting spot-forming cells ex vivo (ELISPOT) (SFCs/10^6 cells) in assay [1] of 53. As for “splenocytes from HHD mice vaccinated with p.DOM-PASD1FL (cells without a defined receptor)”, the IFNγ-secreting spot-forming cells ex vivo (ELISPOT) (SFCs/10^6 splenocytes) in assay [2] was 756. Take “splenocytes from HHD mice vaccinated with p.DOM-PASD1(1) (cells without a defined receptor)”: the IFNγ-secreting spot-forming cells ex vivo (ELISPOT) (SFCs/10^6 cells) in assay [3] came out at 117. Besides, the specific lysis of KMS-12-HHD cells (51Cr release assay) in assay [4] is below 40%.
